Reference: the Immune Epitope Database (IEDB)

Tests used:
Assay in all cases: IEDB peptide-MHC binding, purified MHC/competitive/fluorescence; filed as Kd, often an IC50 or EC50 that approximates it; ≥ and ≤ were set here for values at or beyond the usual limits of such assays
Settings in all cases: source organism: Salmonella enterica subsp. enterica serovar Typhi
[1] = molecular target: HLA-B*51:01
[2] = molecular target: HLA-A*02:01
[3] = molecular target: HLA-B*40:13
[4] = molecular target: HLA-A*03:19
[5] = molecular target: HLA-A*32:07
[6] = molecular target: HLA-B*15:42
[7] = molecular target: HLA-C*06:02
[8] = molecular target: HLA-A*68:23
[9] = molecular target: HLA-A*32:15
[10] = molecular target: HLA-B*45:06
[11] = molecular target: HLA-C*04:01
[12] = molecular target: HLA-B*58:01
[13] = molecular target: HLA-B*15:01

Sequence MTMLTRWKI has a Kd [1] of at least 20000 nM, a Kd [2] of 222 nM and a Kd [3] of 365 nM. For the same sequence, the Kd [4] was 3510 nM, the Kd [5] was 77.2 nM and the Kd [6] was at least 5000 nM. For the same sequence, the Kd [7] was 641 nM, the Kd [8] was 0.3 nM and the Kd [9] was 47.8 nM. It also gave a Kd [10] of at least 5000 nM, a Kd [11] of at least 5000 nM and a Kd [12] of 5 nM. It also gave a Kd [13] of at least 20000 nM.
